Laboratory results reported in patent US20260242735A1 (UNIVERSIT T BASEL, published 2026).

B1: Refmab #1 (antibody, human IgG1, V domains shown)
VH: EVQLVQSGAEVKKPGSSVKVSCKASGYTITDSNIHWVRQAPGQSLEWIGYIYPYNGGTDYNQKFKNRATLTVDNPTNTAYMELSSLRSEDTAFYYCVNGNPWLAYWGQGTLVTVSS
VL: DIQLTQSPSTLSASVGDRVTITCRASESLDNYGIRFLTWFQQKPGKAPKLLMYAASNQGSGVPSRFSGSGSGTEFTLTISSLQPDDFATYYCQQTKEVPWSFGQGTKVEVK
notes: also called hP67.6; Absolute Antibody Cat. No. Ab00283-10.0
B2: Refmab #6 (antibody, human IgG1, V domains shown)
VH: QVQLQQPGAEVVKPGASVKMSCKASGYTFTSYYIHWIKQTPGQGLEWVGVIYPGNDDISYNQKFQGKATLTADKSSTTAYMQLSSLTSEDSAVYYCAREVRLRYFDVWGQGTTVTVSS
VL: EIVLTQSPGSLAVSPGERVTMSCKSSQSVFFSSSQKNYLAWYQQIPGQSPRLLIYWASTRESGVPDRFTGSGSGTDFTLTISSVQPEDLAIYYCHQYLSSRTFGQGTKLEIK
B3: Refmab #3 (antibody, human IgG1, V domains shown)
VH: QVQLVQSGAEVKKPGSSVKVSCKASGYTFTDYNMHWVRQAPGQGLEWIGYIYPYNGGTGYNQKFKSKATITADESTNTAYMELSSLRSEDTAVYYCARGRPAMDYWGQGTLVTVSS
VL: DIQMTQSPSSLSASVGDRVTITCRASESVDNYGISFMNWFQQKPGKAPKLLIYAASNQGSGVPSRFSGSGSGTDFTLTISSLQPDDFATYYCQQSKEVPWTFGQGTKVEIK

Experiments:
human CD33 W22T = human CD33 W22T (human, UniProt P20138 18-364); test: flow cytometry, transfected cells
Sequence of human CD33 W22T (P20138 18-364 W22T limits assumed): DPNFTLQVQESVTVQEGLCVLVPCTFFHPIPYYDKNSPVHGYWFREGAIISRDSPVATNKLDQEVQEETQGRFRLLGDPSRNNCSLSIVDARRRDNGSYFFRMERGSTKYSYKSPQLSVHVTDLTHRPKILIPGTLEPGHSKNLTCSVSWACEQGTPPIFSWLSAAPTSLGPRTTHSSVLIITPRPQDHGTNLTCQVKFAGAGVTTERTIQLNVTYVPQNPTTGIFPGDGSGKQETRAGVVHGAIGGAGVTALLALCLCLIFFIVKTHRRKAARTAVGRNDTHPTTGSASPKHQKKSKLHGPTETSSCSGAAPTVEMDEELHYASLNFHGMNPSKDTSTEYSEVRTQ

human CD33 W22P = human CD33 W22P (human, UniProt P20138 18-364); test: flow cytometry, transfected cells
Sequence of human CD33 W22P (P20138 18-364 W22P limits assumed): as the sequence (P20138 18-364 W22T limits assumed) above, with T5P counted along it

human CD33 W22E = human CD33 W22E (human, UniProt P20138 18-364); test: flow cytometry, transfected cells
Sequence of human CD33 W22E (P20138 18-364 W22E limits assumed): as the sequence (P20138 18-364 W22T limits assumed) above, with T5E counted along it

human CD33 W22R = human CD33 W22R (human, UniProt P20138 18-364); test: flow cytometry, transfected cells
Sequence of human CD33 W22R (P20138 18-364 W22R limits assumed): as the sequence (P20138 18-364 W22T limits assumed) above, with T5R counted along it

[1] = biological target: human CD33 extracellular region N20G (human, UniProt P20138 21-259); test: BLI Octet, IgG captured on AHC, CD33 analyte;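 note: CD33 variants and wild type run as analyte at 5, 50 and 500 nM, 700 s association then 1200 s dissociation, buffer-only reference subtracted, global 1:1 fit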
Sequence of human CD33 extracellular region N20G (P20138 other isoform, or with tags, fused parts or gaps N20G N20G): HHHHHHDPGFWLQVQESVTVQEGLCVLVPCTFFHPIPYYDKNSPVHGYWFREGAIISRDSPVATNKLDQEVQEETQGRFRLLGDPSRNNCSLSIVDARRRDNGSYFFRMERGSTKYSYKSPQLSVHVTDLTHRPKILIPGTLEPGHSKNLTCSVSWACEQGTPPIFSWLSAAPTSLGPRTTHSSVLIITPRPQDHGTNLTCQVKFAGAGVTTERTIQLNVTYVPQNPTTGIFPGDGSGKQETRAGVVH
Description: (§1) Human CD33 wt and variants, were used as analyte at 3 different concentrations (500, 50 and 5 nM). Association of the analyte to the antibodies was monitored for 700 s and dissociation of the analyte from the antibodies was monitored for 1200 s. Reference subtraction was performed against buffer only wells. AHC tips were regenerated using 10 mM Glycine-HCl pH 1.7. Data were analyzed with Octet Data Analysis software HT 12.0. Data were fitted to a 1:1 binding model. Kinetic rates ka and kd and response signal were globally fitted.

[2] = biological target: human CD33 extracellular region N20D (human, UniProt P20138 21-259); test: BLI Octet, IgG captured on AHC, CD33 analyte;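 note: CD33 variants and wild type run as analyte at 5, 50 and 500 nM, 700 s association then 1200 s dissociation, buffer-only reference subtracted, global 1:1 fit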
Sequence of human CD33 extracellular region N20D (P20138 other isoform, or with tags, fused parts or gaps N20D N20D): as the sequence (P20138 other isoform, or with tags, fused parts or gaps N20G N20G) above, with G9D counted along it
Description: as §1

[3] = biological target: human CD33 extracellular region N20E (human, UniProt P20138 21-259); test: BLI Octet, IgG captured on AHC, CD33 analyte;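 note: CD33 variants and wild type run as analyte at 5, 50 and 500 nM, 700 s association then 1200 s dissociation, buffer-only reference subtracted, global 1:1 fit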
Sequence of human CD33 extracellular region N20E (P20138 other isoform, or with tags, fused parts or gaps N20E N20E): as the sequence (P20138 other isoform, or with tags, fused parts or gaps N20G N20G) above, with G9E counted along it
Description: as §1

[4] = biological target: human CD33 extracellular region N20K (human, UniProt P20138 21-259); test: BLI Octet, IgG captured on AHC, CD33 analyte;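 note: CD33 variants and wild type run as analyte at 5, 50 and 500 nM, 700 s association then 1200 s dissociation, buffer-only reference subtracted, global 1:1 fit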
Sequence of human CD33 extracellular region N20K (P20138 other isoform, or with tags, fused parts or gaps N20K N20K): as the sequence (P20138 other isoform, or with tags, fused parts or gaps N20G N20G) above, with G9K counted along it
Description: as §1

[5] = biological target: human CD33 extracellular region N20H (human, UniProt P20138 21-259); test: BLI Octet, IgG captured on AHC, CD33 analyte
Sequence of human CD33 extracellular region N20H (P20138 other isoform, or with tags, fused parts or gaps N20H N20H): as the sequence (P20138 other isoform, or with tags, fused parts or gaps N20G N20G) above, with G9H counted along it
Description: as §1

[6] = biological target: human CD33 extracellular region F21V (human, UniProt P20138 22-259); test: BLI Octet, IgG captured on AHC, CD33 analyte
Sequence of human CD33 extracellular region F21V (P20138 other isoform, or with tags, fused parts or gaps F21V F21V): as the sequence (P20138 other isoform, or with tags, fused parts or gaps N20G N20G) above, with G9N, F10V counted along it
Description: as §1

[7] = biological target: human CD33 extracellular region F21N (human, UniProt P20138 22-259); test: BLI Octet, IgG captured on AHC, CD33 analyte
Sequence of human CD33 extracellular region F21N (P20138 other isoform, or with tags, fused parts or gaps F21N F21N): as the sequence (P20138 other isoform, or with tags, fused parts or gaps N20G N20G) above, with G9N, F10N counted along it
Description: as §1

[8] = biological target: human CD33 extracellular region W22S (human, UniProt P20138 18-259); test: BLI Octet, IgG captured on AHC, CD33 analyte
Sequence of human CD33 extracellular region W22S (P20138 other isoform, or with tags, fused parts or gaps W22S W22S): as the sequence (P20138 other isoform, or with tags, fused parts or gaps N20G N20G) above, with G9N, W11S counted along it
Description: as §1

[9] = biological target: human CD33 extracellular region W22R (human, UniProt P20138 18-259); test: BLI Octet, IgG captured on AHC, CD33 analyte
Sequence of human CD33 extracellular region W22R (P20138 other isoform, or with tags, fused parts or gaps W22R W22R): as the sequence (P20138 other isoform, or with tags, fused parts or gaps N20G N20G) above, with G9N, W11R counted along it
Description: as §1

[10] = biological target: human CD33 extracellular region W22D (human, UniProt P20138 18-259); test: BLI Octet, IgG captured on AHC, CD33 analyte
Sequence of human CD33 extracellular region W22D (P20138 other isoform, or with tags, fused parts or gaps W22D W22D): as the sequence (P20138 other isoform, or with tags, fused parts or gaps N20G N20G) above, with G9N, W11D counted along it
Description: as §1

[11] = biological target: human CD33 extracellular region F44P (human, UniProt P20138 18-259); test: BLI Octet, IgG captured on AHC, CD33 analyte
Sequence of human CD33 extracellular region F44P (P20138 other isoform, or with tags, fused parts or gaps F44P F44P): as the sequence (P20138 other isoform, or with tags, fused parts or gaps N20G N20G) above, with G9N, F33P counted along it
Description: as §1

[12] = biological target: human CD33 extracellular region F44S (human, UniProt P20138 18-259); test: BLI Octet, IgG captured on AHC, CD33 analyte
Sequence of human CD33 extracellular region F44S (P20138 other isoform, or with tags, fused parts or gaps F44S F44S): as the sequence (P20138 other isoform, or with tags, fused parts or gaps N20G N20G) above, with G9N, F33S counted along it
Description: as §1

[13] = biological target: human CD33 extracellular region H45Y (human, UniProt P20138 18-259); test: BLI Octet, IgG captured on AHC, CD33 analyte
Sequence of human CD33 extracellular region H45Y (P20138 other isoform, or with tags, fused parts or gaps H45Y H45Y): as the sequence (P20138 other isoform, or with tags, fused parts or gaps N20G N20G) above, with G9N, H34Y counted along it
Description: as §1

[14] = biological target: human CD33 extracellular region P48F (human, UniProt P20138 18-259); test: BLI Octet, IgG captured on AHC, CD33 analyte
Sequence of human CD33 extracellular region P48F (P20138 other isoform, or with tags, fused parts or gaps P48F P48F): as the sequence (P20138 other isoform, or with tags, fused parts or gaps N20G N20G) above, with G9N, P37F counted along it
Description: as §1

[15] = biological target: human CD33 extracellular region Y50S (human, UniProt P20138 18-259); test: BLI Octet, IgG captured on AHC, CD33 analyte
Sequence of human CD33 extracellular region Y50S (P20138 other isoform, or with tags, fused parts or gaps Y50S Y50S): as the sequence (P20138 other isoform, or with tags, fused parts or gaps N20G N20G) above, with G9N, Y39S counted along it
Description: as §1

[16] = biological target: human CD33 extracellular region Y50D (human, UniProt P20138 18-259); test: BLI Octet, IgG captured on AHC, CD33 analyte
Sequence of human CD33 extracellular region Y50D (P20138 other isoform, or with tags, fused parts or gaps Y50D Y50D): as the sequence (P20138 other isoform, or with tags, fused parts or gaps N20G N20G) above, with G9N, Y39D counted along it
Description: as §1

[17] = biological target: human CD33 extracellular region Y50R (human, UniProt P20138 18-259); test: BLI Octet, IgG captured on AHC, CD33 analyte
Sequence of human CD33 extracellular region Y50R (P20138 other isoform, or with tags, fused parts or gaps Y50R Y50R): as the sequence (P20138 other isoform, or with tags, fused parts or gaps N20G N20G) above, with G9N, Y39R counted along it
Description: as §1

[18] = biological target: human CD33 extracellular region Y50E (human, UniProt P20138 18-259); test: BLI Octet, IgG captured on AHC, CD33 analyte
Sequence of human CD33 extracellular region Y50E (P20138 other isoform, or with tags, fused parts or gaps Y50E Y50E): as the sequence (P20138 other isoform, or with tags, fused parts or gaps N20G N20G) above, with G9N, Y39E counted along it
Description: as §1

[19] = biological target: human CD33 extracellular region Y50K (human, UniProt P20138 18-259); test: BLI Octet, IgG captured on AHC, CD33 analyte
Sequence of human CD33 extracellular region Y50K (P20138 other isoform, or with tags, fused parts or gaps Y50K Y50K): as the sequence (P20138 other isoform, or with tags, fused parts or gaps N20G N20G) above, with G9N, Y39K counted along it
Description: as §1

[20] = biological target: human CD33 extracellular region N100Q (human, UniProt P20138 18-259); test: BLI Octet, IgG captured on AHC, CD33 analyte
Sequence of human CD33 extracellular region N100Q (P20138 other isoform, or with tags, fused parts or gaps N100Q N100Q): as the sequence (P20138 other isoform, or with tags, fused parts or gaps N20G N20G) above, with G9N, N89Q counted along it
Description: as §1

| Binder | binding result (human CD33 W22T) | binding result (human CD33 W22P) | binding result (human CD33 W22E) | binding result (human CD33 W22R) | % WT binding [1] [%] | % WT binding [2] [%] | % WT binding [3] [%] | % WT binding [4] [%] | % WT binding [5] [%] | % WT binding [6] [%] | % WT binding [7] [%] | % WT binding [8] [%] | % WT binding [9] [%] | % WT binding [10] [%] | % WT binding [11] [%] | % WT binding [12] [%] | % WT binding [13] [%] | % WT binding [14] [%] | % WT binding [15] [%] | % WT binding [16] [%] | further results |
| --- | --- | --- | --- | --- | --- | --- | --- | --- | --- | --- | --- | --- | --- | --- | --- | --- | --- | --- | --- | --- | --- |
| B1 | no binding (tested: below 20%) | no binding (tested: below 20%) | no binding (tested: below 20%) | no binding (tested: below 20%) | 0 | 0 | 3.46 | 0 | 67 | 0 | 0 | 45.9 | 26.4 | 0 | 0 | 63.9 | 55 | 76.2 | 75.5 | 71.5 | % WT binding [17]: 73.3%; % WT binding [18]: 101%; % WT binding [19]: 101%; % WT binding [20]: 107% |
| B2 | no binding (tested: below 20%) | no binding (tested: below 20%) | no binding (tested: below 20%) | no binding (tested: below 20%) | – | – | – | – | – | – | – | – | – | – | – | – | – | – | – | – | – |
| B3 | no binding (tested: below 20%) | no binding (tested: below 20%) | no binding (tested: below 20%) | no binding (tested: below 20%) | 0 | 0 | 6.04 | 0 | 0 | 0 | 0 | 20.1 | 0 | 0 | 0 | 39 | 35.1 | 74.3 | 70.9 | 71 | % WT binding [17]: 70.5%; % WT binding [18]: 120%; % WT binding [19]: 122%; % WT binding [20]: 124% |
